What was measured:
human CCR8 (human) [1] = target: human CCR8 (human) (UniProt P51685); test: cell-based or functional assay
human CCR8 (human) [2] = target: human CCR8 (human) (UniProt P51685); test: flow cytometry on lymphocytes from ovarian cancer ascites, 1 µg antibody
human CCR8 (human) [3] = target: human CCR8 (human) (UniProt P51685); test: flow cytometry on lymphocytes from ovarian cancer ascites, 0.1 µg antibody
human CCR8 (human) [4] = target: human CCR8 (human) (UniProt P51685); test: flow cytometry on lymphocytes from ovarian cancer ascites, 0.5 µg antibody
human CCR8 (human) [5] = target: human CCR8 (human) (UniProt P51685); test: flow cytometry, hCCR8-transfected CHO-K1 cells

Substance	EC80 of hCCL1, hCCR8 Gi2 BRET, HEK-293 in suspension (human CCR8 (human) [1])	EC80 of hCCL1, hCCR8 Gi2 BRET, adherent HEK-293 (protocol #4) (human CCR8 (human) [1])	Positive cells (human CCR8 (human) [2])	Positive cells (human CCR8 (human) [3])	Positive cells (human CCR8 (human) [4])	% positive cells (human CCR8 (human) [5])	MFI fold change to isotype ctrl (human CCR8 (human) [5])
human CCL1 (from UniProt P22362 24-96) (ligand)	6 nM	0.6 nM	–	–	–	–	–
Isotype ctrl (antibody)	–	–	5.06%	2.94%	3.81%	–	–
murine anti-human CCR8 monoclonal antibody L263G8	–	–	8.64%	9.5%	9.86%	86.5%	19.8 fold

From US20260132208A1
